koff, Kd and kon data for 39 molecules are collected here from patent publication US20140221623A1 (Ablynx, published 2014).

Residue numbers refer to the chain shown, from its start.

Test [1] has as its target T1, Human soluble IL6-R (human, UniProt P08887 20-358).
T1 construct: Bought soluble receptor; biotinylated in some Alphascreen assays; also called sIL6-R; hIL-6R
T1 sequence (looked up): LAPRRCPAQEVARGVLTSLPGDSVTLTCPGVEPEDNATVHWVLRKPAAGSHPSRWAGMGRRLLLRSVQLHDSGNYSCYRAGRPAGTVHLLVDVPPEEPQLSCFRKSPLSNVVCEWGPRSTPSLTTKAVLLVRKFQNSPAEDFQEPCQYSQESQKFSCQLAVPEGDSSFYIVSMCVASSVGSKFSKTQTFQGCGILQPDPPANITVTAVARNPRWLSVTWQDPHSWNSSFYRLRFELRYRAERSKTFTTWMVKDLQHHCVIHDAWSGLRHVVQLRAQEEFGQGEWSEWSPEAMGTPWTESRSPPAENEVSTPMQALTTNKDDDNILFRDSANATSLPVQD
Briefly: SPR (Biacore), off-rate. On the technique in general: In SPR one partner is held on a chip, and binding of the other changes the refractive index at the surface.

For test [2], the target named is T1, Human soluble IL6-R. The experiment in a line: SPR (Biacore 3000), IL6-R on CM5 chip.

B1: PMP 28 A2 (VHH)
VHH: EVQLVESGGGLVQPGGSLRLSCAASGFTFGSYDMSWVRQAPGKGPEWVSAINSGGGSTYYADSVKGRFTISRDNAKNTLYLQMNSLKPEDTAVYYCATDWRYSDYDLPLPPPGDYWGQGTQVTVSS
notes: also called PMP28A2(t)
Molecule B1 returned an off-rate (koff) in the test with Human soluble IL6-R [1] of 0.00124 s⁻¹.

B2: PMP 32 H5 (VHH)
VHH: B1 VHH
notes: also called PMP32H5(t)
For the molecule B2, the koff with Human soluble IL6-R [1] came out at 0.00128 s⁻¹. This koff and that of the molecule before are within 1.5-fold of each other.

B3: PMP 31 F4 (VHH)
VHH: B1 VHH
notes: also called PMP31F4(t)
In the test with Human soluble IL6-R [1], B3 registered a koff of 0.00123 s⁻¹.

B4: PMP 28 H6 (VHH)
VHH: B1 VHH
notes: also called PMP28H6(t)
B4 showed a koff in the test with Human soluble IL6-R [1] of 0.00247 s⁻¹.

B5: PMP 31 B11 (VHH)
VHH: B1 VHH
notes: also called PMP31B11(t)
As to B5, in the test with Human soluble IL6-R [1], the koff is 0.00124 s⁻¹.

B6: PMP 28 D4 (VHH)
VHH: B1 VHH
notes: also called PMP28D4(t)
In the case of B6, in the test with Human soluble IL6-R [1], the koff was 0.00185 s⁻¹.

B7: PMP 28 F7 (VHH)
VHH: B1 VHH
notes: also called PMP28F7(t)
The molecule B7 had a koff in the test with Human soluble IL6-R [1] of 0.00126 s⁻¹.

B8: PMP 31 B4 (VHH)
VHH: B1 VHH
notes: also called PMP31B4(t)
Take B8: in the test with Human soluble IL6-R [1], the koff is 0.00128 s⁻¹. The koff values of the last two molecules are within 1.5-fold of each other.

B9: PMP 31 C8 (VHH)
VHH: B1 VHH
notes: also called PMP31C8(t)
The molecule B9 showed a koff with Human soluble IL6-R [1] of 0.00125 s⁻¹.

B10: PMP 28 C7 (VHH)
VHH: B1 VHH with G56D, S57N
notes: also called PMP28C7(t)
As to B10, the koff with Human soluble IL6-R [1] was 0.00131 s⁻¹.

B11: PMP 34 E10 (VHH)
VHH: EVQLVESGGGLVQAGGSLRLSCAASGRTFSSYAMGWGRQAPGKEREFVATISWSGGSTYYADSVKGRFTISRDNAKNTVYLQMNSLKPEDTAVYYCAADLAEFKYSDYADYWGQGTQVTVSS
On to B11, for which, in the test with Human soluble IL6-R [1], the koff was found to be 0.002 s⁻¹.

B12: PMP 28 B1 (VHH)
VHH: EVQLVESGGGLVQPGGSLRLSCAASGFTLNYYAIGWFRQAPGKEREGVSCISSSDGSTYYADSVKGRFTISRDNAKNTFYLQMNSLKPEDTAVYYCAAEGLGDSDSPCGAAWYNDYWGQGTQVTVSS
notes: also called PMP28B1(t)
The molecule B12 yielded a koff with Human soluble IL6-R [1] of 0.00134 s⁻¹.

B13: IL6R61 (VHH)
VHH: EVQLVESGGGLVQPGGSLRLSCAASGSIFKVNAMGWYRQAPGKGRELVAGIISGGSTNYADSVKGRLTISRDNAKNTVYLQMNSLRPEDTAVYYCSFVTTNSDYDLGRDYWGQGTLVTVSS
notes: Humanized variant of IL6R03
In the test with Human soluble IL6-R [2], B13 showed a Kd of 2 nM, a koff of 0.0017 s⁻¹ and a kon of 850000 M⁻¹ s⁻¹.

B14: IL6R63 (VHH)
VHH: B13 VHH with V78L
notes: Humanized variant of IL6R03
Take B14: in the test with Human soluble IL6-R [2], the Kd came to 3.69 nM, the koff came to 0.00365 s⁻¹ and the kon was determined as 990000 M⁻¹ s⁻¹.

B15: IL6R64 (VHH)
VHH: B13 VHH with S96A
notes: Humanized variant of IL6R03
Take B15: the koff with Human soluble IL6-R [2] came out at 0.001 s⁻¹.

B16: IL6R65 (VHH)
VHH: B13 VHH with L67F, V78L, S96A
notes: Humanized variant of IL6R03
As to B16, in the test with Human soluble IL6-R [2], the affinity, expressed as Kd, was 4 nM; the koff was 0.00235 s⁻¹; the kon was 600000 M⁻¹ s⁻¹.

B17: IL6R62 (VHH)
VHH: B13 VHH with L67F
notes: Humanized variant of IL6R03
With B17, in the test with Human soluble IL6-R [2], the Kd stood at 2.22 nM, the koff is 0.00207 s⁻¹ and the kon was 929000 M⁻¹ s⁻¹.

B18: IL6R73 (VHH)
VHH: EVQLVESGGGLVQPGGSLRLSCAASGFTFDDYDIGWFRQAPGKGREGVSGISSSDGNTYYADSVKGRFTISRDNAKNTVYLQMNSLRPEDTAVYYCAAEPPDSSWYLDGSPEFFKYWGQGTLVTVSS
notes: Humanized variant of IL6R04
In the test with Human soluble IL6-R [2], B18 had a Kd of 0.33 nM, a koff of 0.000233 s⁻¹ and a kon of 698000 M⁻¹ s⁻¹.

B19: PMP 31 D2 (VHH)
VHH: B18 VHH with P14A, D33A, G44E, R72S, R87K, S104N, Y116F, L122Q
notes: also called PMP31D2(t)
As for B19, the koff with Human soluble IL6-R [1] is 0.000281 s⁻¹.

B20: PMP 32 F10 (VHH)
VHH: EVQLVESGGGLVQAGGSLRLSCAASGFTFDDYAIGWFRQAPGKEREGISCISSSDGSTYYADSVKGRFTISSDNAKNTVYLQMNSLKPEDTAVYYCAAEPPDSSWILDGSPEFFKFWGQGTQVTVSS
notes: also called PMP32F10(t)
Regarding B20, in the test with Human soluble IL6-R [1], the koff turned out to be 0.00058 s⁻¹.

B21: IL6R74 (VHH)
VHH: B18 VHH with R72S, V79L
notes: Humanized variant of IL6R04
In the test with Human soluble IL6-R [2], B21 had a Kd of 0.16 nM, a koff of 0.000122 s⁻¹ and a kon of 767000 M⁻¹ s⁻¹.

B22: PMP 31 C5 (VHH)
VHH: B20 VHH with I48V, Q82L, S104M, I106S
notes: also called PMP31C5(t)
Turning to B22, the koff in the test with Human soluble IL6-R [1] was determined as 0.000111 s⁻¹.

B23: IL6R75 (VHH)
VHH: B18 VHH with D30S, V79L
notes: Humanized variant of IL6R04
In the case of B23, in the test with Human soluble IL6-R [2], the Kd was under 0.1 nM, the koff was under 0.0001 s⁻¹ and the kon came out at 1e+06 M⁻¹ s⁻¹.

B24: PMP 33 A2 (VHH)
VHH: EVQLVESGGGLVQPGGSLRLSCAASGFSLDYYAIGWFRQAPGKEREGVSCMDSSGGTTSTYYSDSVKGRFTISRDDAKNTVYLQMNSLKPEDTAVYYCAADGHLNWGQRYVPCSQISWRGWNDYWGQGTQVTVSS
notes: also called PMP33A2(t)
In the test with Human soluble IL6-R [1], B24 gave a koff of 0.0005 s⁻¹.

B25: PMP 34 F8 (VHH)
VHH: B24 VHH with G55D, S59N, V95S, R109P
notes: also called PMP34F8(t)
On to B25, for which the koff with Human soluble IL6-R [1] turned out to be 0.000142 s⁻¹.

B26: PMP 34 D2 (VHH)
VHH: EVQLVESGGGLVQPGGSLRLSCAASGFTLDYFAIGWFRQAPGKERERVSCISSSDGSTYYADSVKGRFTISRDNAKNTVYLQMNSLKPEDTAVYYCATDRSVYYCSGGAPEEYYWGQGTQVTVSS
notes: also called PMP34D2(t)
In turn, B26 came in with a koff in the test with Human soluble IL6-R [1] of 0.000331 s⁻¹.

B27: PMP 34 E9 (VHH)
VHH: B26 VHH with F32Y, R47G, V93A, G108D
notes: also called PMP34E9(t)
Consider B27, for which the koff with Human soluble IL6-R [1] stood at 0.000503 s⁻¹.

B28: PMP 34 G3 (VHH)
VHH: B26 VHH with F32Y, V93A
Take B28: the koff with Human soluble IL6-R [1] amounted to 0.00014 s⁻¹.

B29: PMP 33 G3 (VHH)
VHH: B26 VHH with D30G, R47G, T58A, I70V
notes: also called PMP33G3(t)
Regarding B29, the koff with Human soluble IL6-R [1] was determined as 0.00119 s⁻¹.

B30: PMP 34 A5 (VHH)
VHH: B26 VHH with D30G, R47G, I70V
notes: also called PMP34A5(t)
Regarding B30, the koff in the test with Human soluble IL6-R [1] is 0.00168 s⁻¹.

B31: PMP 30 B1 (VHH)
VHH: B26 VHH with F32Y, F37W, E44G, R47G, S54G, Y59N
notes: also called PMP30B1(t)
In the case of B31, the koff with Human soluble IL6-R [1] turned out to be 0.001 s⁻¹.

B32: PMP 30 A10 (VHH)
VHH: EVQLVESGGGLVQPGGSLRLSCAASGFTFDDYGMSWVRQAPGKGLEWVSAISWNGGSTYYTESMKGRFTISRDNAKNTVYLQMNSLKPEDTAVYYCVKGSTAIVGVPPTYPDEYDYWGQGTQVTVSS
notes: also called PMP30A10(t)
For the molecule B32, in the test with Human soluble IL6-R [1], the koff is 0.00268 s⁻¹. This koff is about 2.7-fold higher than that of the molecule before.

B33: PMP 33 C10 (VHH)
VHH: B32 VHH
notes: also called PMP33C10(t)
In the test with Human soluble IL6-R [1], B33 registered a koff of 0.00308 s⁻¹.

B34: PMP 28 G3 (VHH)
VHH: EVQLVESGGGLVQAGGSLRLSCTASGNIFSTETMGWYRQPPGKQRDVVATITHGGTTNYADSVKGRFTISRDNRKNTVYLQMNSLKPEDTGVYYCNARSSWYSPEYWGQGTQVTVSS
Take B34: in the test with Human soluble IL6-R [1], the off-rate (koff) is 0.00193 s⁻¹.

B35: PMP 30 G11 (VHH)
VHH: EVQLVESGGGLVQPGGSLRLSCVASGFSLDYYVIGWFRQAPGKEREGVSCISSSDGSTYYADSVKGRFTISRDNAKNTVYLQMNSLKPEDTAVYYCAADLLRTPEFCVDSAPYDYWGQGTQVTVSS
notes: also called PMP30G11(t)
Turning to B35, the koff in the test with Human soluble IL6-R [1] amounted to 0.00164 s⁻¹.

B36: PMP 30 A2 (VHH)
VHH: B35 VHH with V23A, S28T, S52G, G56D, V108T
notes: also called PMP30A2(t)
Take B36: the koff in the test with Human soluble IL6-R [1] came to 0.00257 s⁻¹. Compared with the last molecule, the koff is about 1.6-fold higher.

B37: PMP 30 B6 (VHH)
VHH: B35 VHH with V23A, S28T, G47A, S49A, G56R, V79G, V108S
notes: also called PMP30B6(t)
Turning to B37, in the test with Human soluble IL6-R [1], the koff worked out at 0.000842 s⁻¹.

B38: PMP 34 C3 (VHH)
VHH: B35 VHH with Q118R
notes: also called PMP34C3(t)
In turn, B38 gave a koff with Human soluble IL6-R [1] of 0.000435 s⁻¹. This koff lies about 1.9-fold lower than the previous one.

B39: PMP 34 C11 (VHH)
VHH: EVQLVESGGGLVQPGGSLRLSCAAAGFTLDYSAIGWFRQAPGKEREMFSCISGSDGSTWYADSVAGRFTISFDNAKNTVYLQMNSLKPEDTGLYICAVTGGVRGPCAYEYEYWGQGTQVTVSS
In the test with Human soluble IL6-R [1], B39 returned a koff of 0.00367 s⁻¹. Compared with the last molecule, the koff is about 8.4-fold higher.

The term koff denotes the rate constant with which the complex falls apart. Read a high koff as fast dissociation. One may read the Kd as the concentration at which binding is half-saturated. Higher therefore signals lower affinity. In general, kon refers to a measure of how fast the partners come together. Low readings indicate slow association, high ones fast association.
